Earlier results on one substance are cited in PMC11182772.

For the data set, the target named is Scc1-SA2 (Homo sapiens) (UniProt O60216).
Sequence of Scc1-SA2 (Homo sapiens) (O60216 whole entry, chain 1 of 2): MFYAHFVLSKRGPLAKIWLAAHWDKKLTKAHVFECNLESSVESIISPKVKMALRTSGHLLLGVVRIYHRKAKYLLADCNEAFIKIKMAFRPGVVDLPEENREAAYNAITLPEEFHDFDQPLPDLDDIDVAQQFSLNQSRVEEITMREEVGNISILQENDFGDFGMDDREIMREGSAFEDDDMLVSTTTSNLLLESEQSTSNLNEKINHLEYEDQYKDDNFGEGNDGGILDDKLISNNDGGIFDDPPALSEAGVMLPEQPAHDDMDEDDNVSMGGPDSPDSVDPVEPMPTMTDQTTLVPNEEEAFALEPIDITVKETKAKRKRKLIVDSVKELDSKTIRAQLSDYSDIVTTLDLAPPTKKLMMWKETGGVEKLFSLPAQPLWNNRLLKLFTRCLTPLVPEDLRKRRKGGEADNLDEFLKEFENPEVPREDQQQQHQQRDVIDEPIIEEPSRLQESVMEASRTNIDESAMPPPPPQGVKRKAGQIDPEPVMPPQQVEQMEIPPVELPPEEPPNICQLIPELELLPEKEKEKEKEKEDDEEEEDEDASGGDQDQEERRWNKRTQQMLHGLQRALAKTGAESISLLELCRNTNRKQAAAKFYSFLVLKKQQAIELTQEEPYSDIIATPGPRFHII
Sequence of Scc1-SA2 (Homo sapiens) (Q8N3U4 whole entry, chain 2 of 2, further chain): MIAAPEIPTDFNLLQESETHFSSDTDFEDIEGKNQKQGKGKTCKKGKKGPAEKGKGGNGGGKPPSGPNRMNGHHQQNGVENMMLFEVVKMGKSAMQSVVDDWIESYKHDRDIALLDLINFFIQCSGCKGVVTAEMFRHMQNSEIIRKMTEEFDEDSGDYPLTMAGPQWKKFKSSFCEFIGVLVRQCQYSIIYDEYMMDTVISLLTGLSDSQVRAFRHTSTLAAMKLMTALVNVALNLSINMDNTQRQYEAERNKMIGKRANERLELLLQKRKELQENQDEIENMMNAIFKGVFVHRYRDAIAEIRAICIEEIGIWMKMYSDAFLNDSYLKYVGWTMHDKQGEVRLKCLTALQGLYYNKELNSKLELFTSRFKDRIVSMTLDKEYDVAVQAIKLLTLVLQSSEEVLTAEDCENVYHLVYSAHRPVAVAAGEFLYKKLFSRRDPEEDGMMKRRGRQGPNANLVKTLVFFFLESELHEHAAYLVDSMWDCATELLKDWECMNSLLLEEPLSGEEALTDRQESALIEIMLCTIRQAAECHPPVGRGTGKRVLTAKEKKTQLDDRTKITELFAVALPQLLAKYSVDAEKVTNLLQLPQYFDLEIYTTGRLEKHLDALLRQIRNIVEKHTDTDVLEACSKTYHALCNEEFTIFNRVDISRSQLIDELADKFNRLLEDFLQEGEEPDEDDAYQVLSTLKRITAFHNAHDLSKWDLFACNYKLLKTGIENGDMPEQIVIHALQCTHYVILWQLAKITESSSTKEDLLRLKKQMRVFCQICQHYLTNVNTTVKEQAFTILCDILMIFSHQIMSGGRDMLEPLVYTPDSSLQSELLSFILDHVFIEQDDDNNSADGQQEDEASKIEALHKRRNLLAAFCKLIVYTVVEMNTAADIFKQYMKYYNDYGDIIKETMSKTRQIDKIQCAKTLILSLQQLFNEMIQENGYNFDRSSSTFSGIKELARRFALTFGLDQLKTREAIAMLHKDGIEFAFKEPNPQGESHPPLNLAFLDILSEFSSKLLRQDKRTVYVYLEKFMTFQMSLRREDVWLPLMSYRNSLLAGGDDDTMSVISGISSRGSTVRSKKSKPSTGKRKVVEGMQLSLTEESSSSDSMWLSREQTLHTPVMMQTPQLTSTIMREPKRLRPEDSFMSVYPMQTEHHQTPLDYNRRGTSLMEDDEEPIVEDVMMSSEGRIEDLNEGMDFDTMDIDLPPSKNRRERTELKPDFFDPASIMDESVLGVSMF

Consider “CENP-U DVFDF motif peptide (from UniProt Q71F23)”, for which the Kd is 4 µM.

A word on the Kd: it is the free concentration of one partner at which half of the binding sites on the other are occupied at equilibrium, for simple one-to-one binding.
